Laboratory results published in paper PMC7822592, “The half-life of the bone-derived hormone osteocalcin is regulated through O-glycosylation in mice, but not in humans” (eLife, 2020).
No end group written: not given here.

Assays:
[1] = Ex vivo half-life of mouse OCN in plasma; type: in vitro ADME; details: 100 ng/ml
Protocol: The mouse OCN ex vivo half-life assays were performed with fresh plasma (lithium heparin) collected from four independent Bglap-/- mice. Glycosylated OCN produced in HEK293 cells and non-glycosylated OCN, produced in bacteria as previously described ([Ferron et al., 2012]), were incubated at 100 ng/ml in plasma at 37°C and OCN level was measured at indicated time points using the total mouse OCN ELISA assay described previously ([Ferron et al., 2010b]). […] The detection antibody is a goat polyclonal antibody directed against the C-terminal region (amino acids 26 to 46) of mouse OCN (anti-CTERM OCN). This assay detects with the same sensitivity glycosylated and non-glycosylated mouse OCN at concentration of 50 ng/ml or less (Figure 3—figure supplement 2). Therefore, all samples were diluted to be in this range before being measured by the ELISA. Human OCN half-life assay was performed ex vivo using Bglap-/- mice plasma and human OCN at 60 ng/ml. Human OCN level was measured at different time point using the human ucOCN ELISA described above. At the experiment start point (T0), an aliquot of plasma was diluted in ELISA assay buffer and kept on ice for OCN measurements. In some experiments, plasma was heat-inactivated for 30 min at 56°C, or treated with EDTA (10 mM, Wisent), phenylmethylsulfonyl fluoride (PMSF, 10 mM, Sigma), pepstatin A (Pep A, 10 μM, Sigma) which inhibits aspartic proteases (pepsin, cathepsin D, renin, chymosin), RVKR (Dec-RVKR-CMK, 50 μM; Tocris) or talabostat (10 mM; Tocris). Results are calculated in percentage relative to the initial concentration of non-glycosylated and glycosylated OCN respectively.

[2] = target: T1, human plasmin (Homo sapiens, UniProt P00747); assay: Plasmin enzymatic assay on OCN in heat-inactivated plasma; type: in vitro ADME; details: for % OCN from initial: heat-inactivated Bglap-/- plasma diluted two times in 100 mM Tris pH 7.5, 50 ng/ml, ELISA; for % OCN from initial / % OCN from initial in plasmin (0.3 U/ml): 2hrs, 37°C; for % OCN from initial in plasmin (0.3 U/ml): inset graph, heat-inactivated Bglap-/- plasma, 50 ng/ml
T1 construct: different concentration of human plasmin (Sigma); purchased Sigma P1867
Protocol: The plasmin enzymatic assay was performed on plasma ex vivo in the presence of non-glycosylated OCN and glycosylated OCN as follows: plasma from Bglap-/- mice was heat-inactivated for 30 min at 56°C, then diluted two times in the enzyme assay buffer containing 100 mM Tris buffer pH 7.5. Non-glycosylated OCN or glycosylated OCN was incubated at 50 ng/ml in the diluted plasma for two hours in the presence of different concentration of human plasmin (Sigma) ranging from 0 to 0.3 U/ml. After two hours, OCN level was measured using total mouse OCN ELISA. Results are represented as percentage of initial concentration of non-glycosylated and glycosylated OCN respectively.

T1 sequence (P00747 581-810 limits assumed): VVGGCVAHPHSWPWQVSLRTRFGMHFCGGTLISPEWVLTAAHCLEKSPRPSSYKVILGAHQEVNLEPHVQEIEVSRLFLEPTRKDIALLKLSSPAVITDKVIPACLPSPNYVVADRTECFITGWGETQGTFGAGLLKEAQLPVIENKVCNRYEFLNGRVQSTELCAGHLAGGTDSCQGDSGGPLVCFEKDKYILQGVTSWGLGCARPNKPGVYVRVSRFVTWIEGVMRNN
T1 sequence (P00747 97-580 partner limits assumed): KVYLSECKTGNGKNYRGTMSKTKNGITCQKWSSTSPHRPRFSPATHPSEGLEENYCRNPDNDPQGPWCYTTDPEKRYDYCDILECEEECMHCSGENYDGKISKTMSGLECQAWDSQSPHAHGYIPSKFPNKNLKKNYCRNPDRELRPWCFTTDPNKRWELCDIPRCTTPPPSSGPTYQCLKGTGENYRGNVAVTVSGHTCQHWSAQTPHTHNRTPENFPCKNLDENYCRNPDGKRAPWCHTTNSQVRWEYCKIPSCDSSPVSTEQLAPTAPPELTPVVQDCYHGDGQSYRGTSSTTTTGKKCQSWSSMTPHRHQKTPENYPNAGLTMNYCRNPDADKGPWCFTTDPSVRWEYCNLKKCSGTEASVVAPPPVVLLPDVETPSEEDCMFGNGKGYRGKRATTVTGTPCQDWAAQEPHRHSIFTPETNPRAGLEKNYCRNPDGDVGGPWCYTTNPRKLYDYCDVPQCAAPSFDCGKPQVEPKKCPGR

ucOCN: Non-glycosylated uncarboxylated mouse osteocalcin produced in bacteria (YLGASVPSPDPLEPTREQCELNPACDELSDQYGLKTAYKRIYGITI; ends and bridges not checked; cysteine pairing not given here; UniProt P86546 50-95, looked up)
stability in saline solution containing 3.5% BSA ([1]; 37°C, 2 hr, ELISA): stable
% OCN from initial ([1]; Bglap-/- mouse plasma, 37°C, 0 min, ELISA, replicate 1): 100.0%
% OCN from initial ([1]; Bglap-/- mouse plasma, 37°C, 0 min, ELISA, replicate 2): 100.0%
% OCN from initial ([1]; Bglap-/- mouse plasma, 37°C, 0 min, ELISA, replicate 3): 100.0%
% OCN from initial ([1]; Bglap-/- mouse plasma, 37°C, 15 min, ELISA, replicate 1): 87.1%
% OCN from initial ([1]; Bglap-/- mouse plasma, 37°C, 15 min, ELISA, replicate 2): 96.1%
% OCN from initial ([1]; Bglap-/- mouse plasma, 37°C, 15 min, ELISA, replicate 3): 88.6%
% OCN from initial ([1]; Bglap-/- mouse plasma, 37°C, 30 min, ELISA, replicate 1): 81.2%
% OCN from initial ([1]; Bglap-/- mouse plasma, 37°C, 30 min, ELISA, replicate 2): 85.3%
% OCN from initial ([1]; Bglap-/- mouse plasma, 37°C, 30 min, ELISA, replicate 3): 89.8%
% OCN from initial ([1]; Bglap-/- mouse plasma, 37°C, 60 min, ELISA, replicate 1): 73.3%
% OCN from initial ([1]; Bglap-/- mouse plasma, 37°C, 60 min, ELISA, replicate 2): 71.4%
% OCN from initial ([1]; Bglap-/- mouse plasma, 37°C, 60 min, ELISA, replicate 3): 69.0%
% OCN from initial ([1]; Bglap-/- mouse plasma, 37°C, 90 min, ELISA, replicate 1): 67.3%
% OCN from initial ([1]; Bglap-/- mouse plasma, 37°C, 90 min, ELISA, replicate 2): 65.7%
% OCN from initial ([1]; Bglap-/- mouse plasma, 37°C, 90 min, ELISA, replicate 3): 66.9%
% OCN from initial ([1]; Bglap-/- mouse plasma, 37°C, 120 min, ELISA, replicate 1): 60.1%
% OCN from initial ([1]; Bglap-/- mouse plasma, 37°C, 120 min, ELISA, replicate 2): 56.6%
% OCN from initial ([1]; Bglap-/- mouse plasma, 37°C, 120 min, ELISA, replicate 3): 51.9%
% OCN from initial ([1]; Bglap-/- mouse plasma, 37°C, 180 min, ELISA, replicate 1): 51.9%
% OCN from initial ([1]; Bglap-/- mouse plasma, 37°C, 180 min, ELISA, replicate 2): 46.9%
% OCN from initial ([1]; Bglap-/- mouse plasma, 37°C, 180 min, ELISA, replicate 3): 43.8%
% OCN from initial ([1]; Bglap-/- mouse plasma, 37°C, 300 min, ELISA, replicate 1): 36.9%
% OCN from initial ([1]; Bglap-/- mouse plasma, 37°C, 300 min, ELISA, replicate 2): 36.3%
% OCN from initial ([1]; Bglap-/- mouse plasma, 37°C, 300 min, ELISA, replicate 3): 30.7%
% OCN from initial ([1]; Figure 3D, Bglap-/- mouse plasma, 2hrs, 4°C, Not HI, ELISA, replicate 1): 108.8%
% OCN from initial ([1]; Figure 3D, Bglap-/- mouse plasma, 2hrs, 4°C, Not HI, ELISA, replicate 2): 99.4%
% OCN from initial ([1]; Figure 3D, Bglap-/- mouse plasma, 2hrs, 4°C, Not HI, ELISA, replicate 3): 94.3%
% OCN from initial ([1]; Figure 3D, Bglap-/- mouse plasma, 2hrs, 37°C, HI (heat-inactivated plasma), ELISA, replicate 1): 108.8%
% OCN from initial ([1]; Figure 3D, Bglap-/- mouse plasma, 2hrs, 37°C, HI (heat-inactivated plasma), ELISA, replicate 2): 108.9%
% OCN from initial ([1]; Figure 3D, Bglap-/- mouse plasma, 2hrs, 37°C, HI (heat-inactivated plasma), ELISA, replicate 3): 82.4%
% OCN from initial ([1]; Figure 3D, Bglap-/- mouse plasma, 2hrs, 37°C, Not HI, ELISA, replicate 1): 34.6%
% OCN from initial ([1]; Figure 3D, Bglap-/- mouse plasma, 2hrs, 37°C, Not HI, ELISA, replicate 2): 23.3%
% OCN from initial ([1]; Figure 3D, Bglap-/- mouse plasma, 2hrs, 37°C, Not HI, ELISA, replicate 3): 37.9%
% OCN from initial ([1]; Figure 3D, Bglap-/- mouse plasma, T0, ELISA, replicate 1): 101.3%
% OCN from initial ([1]; Figure 3D, Bglap-/- mouse plasma, T0, ELISA, replicate 2): 100.0%
% OCN from initial ([1]; Figure 3D, Bglap-/- mouse plasma, T0, ELISA, replicate 3): 98.7%
% OCN from initial ([1]; Figure 3 supplement 3A, 3.5% BSA in saline solution, 2 hours at 37 °C, replicate 1): 108.8%
% OCN from initial ([1]; Figure 3 supplement 3A, 3.5% BSA in saline solution, 2 hours at 37 °C, replicate 2): 110.0%
% OCN from initial ([1]; Figure 3 supplement 3A, 3.5% BSA in saline solution, 2 hours at 37 °C, replicate 3): 106.2%
% OCN from initial ([1]; Figure 3 supplement 3A, Bglap-/- mouse plasma, 4°C, T=2hours, replicate 1): 94.9%
% OCN from initial ([1]; Figure 3 supplement 3A, Bglap-/- mouse plasma, 4°C, T=2hours, replicate 2): 99.7%
% OCN from initial ([1]; Figure 3 supplement 3A, Bglap-/- mouse plasma, 4°C, T=2hours, replicate 3): 100.1%
% OCN from initial ([1]; Figure 3 supplement 3A, Bglap-/- mouse plasma, 2 hours at 37 °C, Pepstatin A (10uM), replicate 1): 52.2%
% OCN from initial ([1]; Figure 3 supplement 3A, Bglap-/- mouse plasma, 2 hours at 37 °C, Pepstatin A (10uM), replicate 2): 57.4%
% OCN from initial ([1]; Figure 3 supplement 3A, Bglap-/- mouse plasma, 2 hours at 37 °C, Pepstatin A (10uM), replicate 3): 69.1%
% OCN from initial ([1]; Figure 3 supplement 3A, Bglap-/- mouse plasma, 2 hours at 37 °C, RVKR (50uM), replicate 1): 56.2%
% OCN from initial ([1]; Figure 3 supplement 3A, Bglap-/- mouse plasma, 2 hours at 37 °C, RVKR (50uM), replicate 2): 66.8%
% OCN from initial ([1]; Figure 3 supplement 3A, Bglap-/- mouse plasma, 2 hours at 37 °C, RVKR (50uM), replicate 3): 78.0%
% OCN from initial ([1]; Figure 3 supplement 3A, Bglap-/- mouse plasma, 2 hours at 37 °C, vehicle (V), replicate 1): 48.4%
% OCN from initial ([1]; Figure 3 supplement 3A, Bglap-/- mouse plasma, 2 hours at 37 °C, vehicle (V), replicate 2): 65.6%
% OCN from initial ([1]; Figure 3 supplement 3A, Bglap-/- mouse plasma, 2 hours at 37 °C, vehicle (V), replicate 3): 67.2%
% OCN from initial ([1]; Figure 3 supplement 3A, Bglap-/- mouse plasma, T0, replicate 1): 107.3%
% OCN from initial ([1]; Figure 3 supplement 3A, Bglap-/- mouse plasma, T0, replicate 2): 96.2%
% OCN from initial ([1]; Figure 3 supplement 3A, Bglap-/- mouse plasma, T0, replicate 3): 96.6%
% OCN from initial ([1]; Figure 3 supplement 3B, Bglap-/- mouse plasma, 4°C, T=2hours, replicate 1): 108.8%
% OCN from initial ([1]; Figure 3 supplement 3B, Bglap-/- mouse plasma, 4°C, T=2hours, replicate 2): 99.4%
% OCN from initial ([1]; Figure 3 supplement 3B, Bglap-/- mouse plasma, 4°C, T=2hours, replicate 3): 94.3%
% OCN from initial ([1]; Figure 3 supplement 3B, Bglap-/- mouse plasma, 2 hours at 37 °C, 10 mM EDTA, replicate 1): 37.4%
% OCN from initial ([1]; Figure 3 supplement 3B, Bglap-/- mouse plasma, 2 hours at 37 °C, 10 mM EDTA, replicate 2): 24.3%
% OCN from initial ([1]; Figure 3 supplement 3B, Bglap-/- mouse plasma, 2 hours at 37 °C, 10 mM EDTA, replicate 3): 37.4%
% OCN from initial ([1]; Figure 3 supplement 3B, Bglap-/- mouse plasma, 2 hours at 37 °C, vehicle (V), replicate 1): 34.6%
% OCN from initial ([1]; Figure 3 supplement 3B, Bglap-/- mouse plasma, 2 hours at 37 °C, vehicle (V), replicate 2): 23.3%
% OCN from initial ([1]; Figure 3 supplement 3B, Bglap-/- mouse plasma, 2 hours at 37 °C, vehicle (V), replicate 3): 37.9%
% OCN from initial ([1]; Figure 3 supplement 3B, Bglap-/- mouse plasma, T0, replicate 1): 101.3%
% OCN from initial ([1]; Figure 3 supplement 3B, Bglap-/- mouse plasma, T0, replicate 2): 100.0%
% OCN from initial ([1]; Figure 3 supplement 3B, Bglap-/- mouse plasma, T0, replicate 3): 98.7%
half-life in plasma ex vivo ([1]; fresh Bglap-/- mouse plasma (lithium heparin), 37°C, total mouse OCN ELISA, n = 4 plasma): ~ 120 min
% OCN from initial ([2]; plasmin 0 U/ml, replicate 1): 91.2%
% OCN from initial ([2]; plasmin 0 U/ml, replicate 2): 108.8%
% OCN from initial ([2]; plasmin 0.024 U/ml, replicate 1): 69.0%
% OCN from initial ([2]; plasmin 0.024 U/ml, replicate 2): 80.5%
% OCN from initial ([2]; plasmin 0.12 U/ml, replicate 1): 38.3%
% OCN from initial ([2]; plasmin 0.12 U/ml, replicate 2): 44.1%
% OCN from initial ([2]; plasmin 0.3 U/ml, replicate 1): 11.5%
% OCN from initial ([2]; plasmin 0.3 U/ml, replicate 2): 15.5%
% OCN from initial in plasmin (0.3 U/ml) ([2]; replicate 1): 11.5%
% OCN from initial in plasmin (0.3 U/ml) ([2]; replicate 2): 15.5%
% OCN from initial in plasmin (0.3 U/ml) ([2]; replicate 3): 12.3%
% OCN from initial in plasmin (0.3 U/ml) ([2]; replicate 4): 11.4%
% OCN from initial in plasmin (0.3 U/ml) ([2]; replicate 5): 9.9%
reduction of concentration by plasmin ([2]; two hours): more than 90%
